The values that follow come from publication PMC12251713, “The Novel Transcription Factor BnaA01.KAN3 Is Involved in the Regulation of Anthocyanin Accumulation Under Phosphorus Starvation”.

This series has as its target T1, BnaA01.KAN3-His (Brassica napus cv. Zhongshuang 11, UniProt A0A816XN48 1-312).
T1 sequence: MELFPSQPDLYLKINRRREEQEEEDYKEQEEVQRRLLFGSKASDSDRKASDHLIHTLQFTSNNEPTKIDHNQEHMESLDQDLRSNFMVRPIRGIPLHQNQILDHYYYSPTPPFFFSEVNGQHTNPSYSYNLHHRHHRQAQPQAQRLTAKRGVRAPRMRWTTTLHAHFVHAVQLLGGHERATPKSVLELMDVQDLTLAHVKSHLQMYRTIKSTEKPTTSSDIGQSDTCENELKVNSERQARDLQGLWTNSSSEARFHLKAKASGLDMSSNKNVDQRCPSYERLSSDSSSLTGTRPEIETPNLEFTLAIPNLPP
The series is described as follows: EMSA; LightShift Chemiluminescent EMSA Kit (Thermo 20148); buffer, salt, pH and temperature not stated. To be noted: protein: recombinant; tags: His (pET28a); label: biotin 3' end; blunt. On the technique in general: Mobility shift assays separate free from complexed probe on a gel.

B1: P1BS EMSA probe (dsDNA)
DNA 1: AGACTTTGATTTGCATTATTGCATATACGTAGTAGTATAATGGTACTATC
DNA 2: GATAGTACCATTATACTACTACGTATATGCAATAATGCAAATCAAAGTCT
On to B1, for which the binding result is reported as “binds”.
